Measurements taken from patent US20220048967A1 (published 2022).
Numbering of substitutions follows the chain as printed. Numbered stars: 1 amine (or outer) side, 2 acyl side, 3 side chain; on linkers, the order of the positions; unused ones are H or OH. Square brackets hold non-standard residues; d marks the D form. Side chains are listed from the residue outwards. Ends that are not written are not given here. * marks the point of attachment. C20 diacid = O=C(O)CCCCCCCCCCCCCCCCCCC(=O)*; C18 diacid = O=C(O)CCCCCCCCCCCCCCCCC(=O)*; γGlu = O=C(O)[C@H](CCC(=O)[*:2])N[*:1]; αMeF = C[C@](N)(Cc1ccccc1)C(=O)O; αMeK = C[C@](N)(CCCCN)C(=O)O; Dab = NCC[C@H](N)C(=O)O; AEEA = NCCOCCOCC(=O)O; Aib = CC(C)(N)C(=O)O

T1: human GIP receptor (human, UniProt P48546 22-466)
T1 sequence (looked up): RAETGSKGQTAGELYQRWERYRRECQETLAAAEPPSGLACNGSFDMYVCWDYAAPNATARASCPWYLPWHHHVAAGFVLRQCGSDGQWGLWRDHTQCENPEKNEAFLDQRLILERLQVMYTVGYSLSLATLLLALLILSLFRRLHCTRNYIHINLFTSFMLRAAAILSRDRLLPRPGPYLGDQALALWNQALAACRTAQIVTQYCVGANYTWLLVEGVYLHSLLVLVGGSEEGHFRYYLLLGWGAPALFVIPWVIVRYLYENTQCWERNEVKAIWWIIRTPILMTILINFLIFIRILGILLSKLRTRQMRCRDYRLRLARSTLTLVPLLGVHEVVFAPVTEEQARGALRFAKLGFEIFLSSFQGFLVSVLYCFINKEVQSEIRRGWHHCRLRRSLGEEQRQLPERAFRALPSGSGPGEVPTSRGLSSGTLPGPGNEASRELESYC

B1: Example 319 (peptide)
peptide: Y[Aib]EGTFTSDYSILLDKK([AEEA-AEEA-γGlu-C20 diacid])AQ[Aib]EFIEYLIAGGPSSGAPPPS-NH2
modifications: N-terminus assumed
SMILES: CC[C@H](C)[C@H](NC(=O)[C@H](CC(C)C)NC(=O)[C@H](Cc1ccc(O)cc1)NC(=O)[C@H](CCC(=O)O)NC(=O)[C@@H](NC(=O)[C@H](Cc1ccccc1)NC(=O)[C@H](CCC(=O)O)NC(=O)C(C)(C)NC(=O)[C@H](CCC(N)=O)NC(=O)[C@H](C)NC(=O)[C@H](CCCCNC(=O)COCCOCCNC(=O)COCCOCCNC(=O)CC[C@H](NC(=O)CCCCCCCCCCCCCCCCCCC(=O)O)C(=O)O)NC(=O)[C@H](CCCCN)NC(=O)[C@H](CC(=O)O)NC(=O)[C@H](CC(C)C)NC(=O)[C@H](CC(C)C)NC(=O)[C@@H](NC(=O)[C@H](CO)NC(=O)[C@H](Cc1ccc(O)cc1)NC(=O)[C@H](CC(=O)O)NC(=O)[C@H](CO)NC(=O)[C@@H](NC(=O)[C@H](Cc1ccccc1)NC(=O)[C@@H](NC(=O)CNC(=O)[C@H](CCC(=O)O)NC(=O)C(C)(C)NC(=O)[C@@H](N)Cc1ccc(O)cc1)[C@@H](C)O)[C@@H](C)O)[C@@H](C)CC)[C@@H](C)CC)C(=O)N[C@@H](C)C(=O)NCC(=O)NCC(=O)N1CCC[C@H]1C(=O)N[C@@H](CO)C(=O)N[C@@H](CO)C(=O)NCC(=O)N[C@@H](C)C(=O)N1CCC[C@H]1C(=O)N1CCC[C@H]1C(=O)N1CCC[C@H]1C(=O)N[C@@H](CO)C(N)=O
B2: Example 298 (peptide)
peptide: Y[Aib]EGTFTSDYSILLDKK([AEEA-AEEA-γGlu-C18 diacid])AQ[Aib]AFVEYLIEGGPSSG-NH2
modifications: N-terminus assumed
SMILES: CC[C@H](C)[C@H](NC(=O)[C@H](CC(C)C)NC(=O)[C@H](Cc1ccc(O)cc1)NC(=O)[C@H](CCC(=O)O)NC(=O)[C@@H](NC(=O)[C@H](Cc1ccccc1)NC(=O)[C@H](C)NC(=O)C(C)(C)NC(=O)[C@H](CCC(N)=O)NC(=O)[C@H](C)NC(=O)[C@H](CCCCNC(=O)COCCOCCNC(=O)COCCOCCNC(=O)CC[C@H](NC(=O)CCCCCCCCCCCCCCCCC(=O)O)C(=O)O)NC(=O)[C@H](CCCCN)NC(=O)[C@H](CC(=O)O)NC(=O)[C@H](CC(C)C)NC(=O)[C@H](CC(C)C)NC(=O)[C@@H](NC(=O)[C@H](CO)NC(=O)[C@H](Cc1ccc(O)cc1)NC(=O)[C@H](CC(=O)O)NC(=O)[C@H](CO)NC(=O)[C@@H](NC(=O)[C@H](Cc1ccccc1)NC(=O)[C@@H](NC(=O)CNC(=O)[C@H](CCC(=O)O)NC(=O)C(C)(C)NC(=O)[C@@H](N)Cc1ccc(O)cc1)[C@@H](C)O)[C@@H](C)O)[C@@H](C)CC)C(C)C)C(=O)N[C@@H](CCC(=O)O)C(=O)NCC(=O)NCC(=O)N1CCC[C@H]1C(=O)N[C@@H](CO)C(=O)N[C@@H](CO)C(=O)NCC(N)=O
B3: Example 304 (peptide)
peptide: YXEGTFTSDYSIXLDKKAQXEFIEYLIEGGPSSG
modifications: Aib2, αMeL13, K17 conjugated to (2-[2-(2-Amino-ethoxy)-ethoxy]-acetyl)2-(γ-Glu)-CO-(CH2)16-CO2H, Aib20, C-terminal amide (NH2)
B4: Example 306 (peptide)
peptide: B3 peptide with E28A
modifications: Aib2, αMeL13, K17 conjugated to (2-[2-(2-Amino-ethoxy)-ethoxy]-acetyl)2-(γ-Glu)-CO-(CH2)16-CO2H, Aib20, C-terminal amide (NH2)
B5: Example 324 (peptide)
peptide: YXEGTFTSDYSIXLDKKAQXAFIEYLIAGGPSSGAPPPS
modifications: Aib2, αMeL13, K17 conjugated to (2-[2-(2-Amino-ethoxy)-ethoxy]-acetyl)2-(γ-Glu)-CO-(CH2)18-CO2H (printed "(CH2)1s"), Aib20, C-terminal amide (NH2)
B6: Example 318 (peptide)
peptide: Y[Aib]EGTFTSDYSILLDKK([AEEA-AEEA-γGlu-C20 diacid])AQ[Aib]EFIEYLIAGGPSSG-NH2
modifications: N-terminus assumed
SMILES: CC[C@H](C)[C@H](NC(=O)[C@H](CC(C)C)NC(=O)[C@H](Cc1ccc(O)cc1)NC(=O)[C@H](CCC(=O)O)NC(=O)[C@@H](NC(=O)[C@H](Cc1ccccc1)NC(=O)[C@H](CCC(=O)O)NC(=O)C(C)(C)NC(=O)[C@H](CCC(N)=O)NC(=O)[C@H](C)NC(=O)[C@H](CCCCNC(=O)COCCOCCNC(=O)COCCOCCNC(=O)CC[C@H](NC(=O)CCCCCCCCCCCCCCCCCCC(=O)O)C(=O)O)NC(=O)[C@H](CCCCN)NC(=O)[C@H](CC(=O)O)NC(=O)[C@H](CC(C)C)NC(=O)[C@H](CC(C)C)NC(=O)[C@@H](NC(=O)[C@H](CO)NC(=O)[C@H](Cc1ccc(O)cc1)NC(=O)[C@H](CC(=O)O)NC(=O)[C@H](CO)NC(=O)[C@@H](NC(=O)[C@H](Cc1ccccc1)NC(=O)[C@@H](NC(=O)CNC(=O)[C@H](CCC(=O)O)NC(=O)C(C)(C)NC(=O)[C@@H](N)Cc1ccc(O)cc1)[C@@H](C)O)[C@@H](C)O)[C@@H](C)CC)[C@@H](C)CC)C(=O)N[C@@H](C)C(=O)NCC(=O)NCC(=O)N1CCC[C@H]1C(=O)N[C@@H](CO)C(=O)N[C@@H](CO)C(=O)NCC(N)=O
B7: Example 317 (peptide)
peptide: Y[Aib]EGTFTSDYSILLDKK([AEEA-AEEA-γGlu-C20 diacid])AQ[Aib]AFIEYLIAGGPSSG-NH2
modifications: N-terminus assumed
SMILES: CC[C@H](C)[C@H](NC(=O)[C@H](CC(C)C)NC(=O)[C@H](Cc1ccc(O)cc1)NC(=O)[C@H](CCC(=O)O)NC(=O)[C@@H](NC(=O)[C@H](Cc1ccccc1)NC(=O)[C@H](C)NC(=O)C(C)(C)NC(=O)[C@H](CCC(N)=O)NC(=O)[C@H](C)NC(=O)[C@H](CCCCNC(=O)COCCOCCNC(=O)COCCOCCNC(=O)CC[C@H](NC(=O)CCCCCCCCCCCCCCCCCCC(=O)O)C(=O)O)NC(=O)[C@H](CCCCN)NC(=O)[C@H](CC(=O)O)NC(=O)[C@H](CC(C)C)NC(=O)[C@H](CC(C)C)NC(=O)[C@@H](NC(=O)[C@H](CO)NC(=O)[C@H](Cc1ccc(O)cc1)NC(=O)[C@H](CC(=O)O)NC(=O)[C@H](CO)NC(=O)[C@@H](NC(=O)[C@H](Cc1ccccc1)NC(=O)[C@@H](NC(=O)CNC(=O)[C@H](CCC(=O)O)NC(=O)C(C)(C)NC(=O)[C@@H](N)Cc1ccc(O)cc1)[C@@H](C)O)[C@@H](C)O)[C@@H](C)CC)[C@@H](C)CC)C(=O)N[C@@H](C)C(=O)NCC(=O)NCC(=O)N1CCC[C@H]1C(=O)N[C@@H](CO)C(=O)N[C@@H](CO)C(=O)NCC(N)=O
B8: Example 3 (peptide)
peptide: YXEGTXTSDYSIXLDXKAQXEFIXYLIEGGPSSGAPPPS
modifications: Aib2, αMeF(2F)6, αMeL13, Orn16, K17 conjugated to (2-[2-(2-Amino-ethoxy)-ethoxy]-acetyl)2-(γ-Glu)-CO-(CH2)18-CO2H, Aib20, D-Glu24, C-terminal amide (NH2)
B9: Example 323 (peptide)
peptide: B5 peptide with K16E, A28E
modifications: Aib2, αMeL13, K17 conjugated to (2-[2-(2-Amino-ethoxy)-ethoxy]-acetyl)2-(γ-Glu)-CO-(CH2)16-CO2H, Aib20, C-terminal amide (NH2)
B10: Example 5 (peptide)
peptide: B8 peptide with Y10V, Y25X
modifications: Aib2, αMeF(2F)6, αMeL13, Orn16, K17 conjugated to (2-[2-(2-Amino-ethoxy)-ethoxy]-acetyl)2-(γ-Glu)-CO-(CH2)16-CO2H, Aib20, D-Glu24, αMeY25, C-terminal amide (NH2)
B11: Example 325 (peptide)
peptide: B5 peptide with F6X, X13L, A28E
modifications: Aib2, αMeF(2F)6, K17 conjugated to (2-[2-(2-Amino-ethoxy)-ethoxy]-acetyl)2-(γ-Glu)-CO-(CH2)18-CO2H, Aib20, C-terminal amide (NH2)
B12: Example 17 (peptide)
peptide: H[Aib]EGTFTSDYSILLDKIAQK([AEEA-AEEA-γGlu-C20 diacid])AFIEYLLE[Aib]GPSSG-NH2
modifications: N-terminus assumed
SMILES: CC[C@H](C)[C@H](NC(=O)[C@H](CCCCN)NC(=O)[C@H](CC(=O)O)NC(=O)[C@H](CC(C)C)NC(=O)[C@H](CC(C)C)NC(=O)[C@@H](NC(=O)[C@H](CO)NC(=O)[C@H](Cc1ccc(O)cc1)NC(=O)[C@H](CC(=O)O)NC(=O)[C@H](CO)NC(=O)[C@@H](NC(=O)[C@H](Cc1ccccc1)NC(=O)[C@@H](NC(=O)CNC(=O)[C@H](CCC(=O)O)NC(=O)C(C)(C)NC(=O)[C@@H](N)Cc1c[nH]cn1)[C@@H](C)O)[C@@H](C)O)[C@@H](C)CC)C(=O)N[C@@H](C)C(=O)N[C@@H](CCC(N)=O)C(=O)N[C@@H](CCCCNC(=O)COCCOCCNC(=O)COCCOCCNC(=O)CC[C@H](NC(=O)CCCCCCCCCCCCCCCCCCC(=O)O)C(=O)O)C(=O)N[C@@H](C)C(=O)N[C@@H](Cc1ccccc1)C(=O)N[C@H](C(=O)N[C@@H](CCC(=O)O)C(=O)N[C@@H](Cc1ccc(O)cc1)C(=O)N[C@@H](CC(C)C)C(=O)N[C@@H](CC(C)C)C(=O)N[C@@H](CCC(=O)O)C(=O)NC(C)(C)C(=O)NCC(=O)N1CCC[C@H]1C(=O)N[C@@H](CO)C(=O)N[C@@H](CO)C(=O)NCC(N)=O)[C@@H](C)CC

target: human GLP-1 receptor (human, UniProt P43220 24-463); assay: cell-based or functional assay

Row | Binder | hGLP1R GTPgS % Top | hGLP1R GTPgS Rel EC50
1 | B1 | 65.7% | 0.657 nM
2 | B2 | 57.3% | 1.03 nM
3 | B3 | 77.1% | 0.561 nM
4 | B4 | 76.1% | 0.378 nM
5 | B5 | 84.5% | 0.475 nM
6 | F[Aib]EGTFTSDYSILLDKK([AEEA-AEEA-γGlu-C20 diacid])AQ[Aib]AFIEYLIEGGPSSGAPPPS-NH2 [Example 326] | 61.6% | 0.663 nM
7 | B6 | 58.4% | 0.415 nM
8 | B7 | 53.7% | 0.536 nM
9 | B8 | 95.4% | 0.421 nM
10 | B9 | 81.9% | 0.79 nM
11 | B10 | 91.3% | 0.196 nM
12 | B11 | 97.9% | 0.414 nM

target: human GLP-1 receptor (human, UniProt P43220 24-463); assay: cell-based or functional assay; remark: another data set of the same source

Row | Binder | hGLP1R cAMP EC50 ratio | hGLP1R cAMP Rel EC50
13 | B12 | 0.398 | 0.152 nM
14 | H[Aib]EGTFTSDYSI[αMeF]LDKK([Dab-AEEA-Dab-AEEA-C20 diacid])AQ[αMeK]AFIQYLLA[Aib]GPSSGAPKPS-NH2 [Example 18] | 0.589 | 0.0945 nM
15 | H[Aib]EGTFTSDYSI[αMeF]LDKK([Dab-AEEA-Dab-AEEA-C20 diacid])AQ[αMeK]AFIQYLLA[Aib]GPSSGAPPPS-NH2 [Example 19] | 0.532 | 0.104 nM

target: T1, human GIP receptor; assay: cell-based or functional assay

Row | Binder | hGIPR cAMP EC50 ratio | hGIPR cAMP Rel EC50
16 | B12 | 0.0257 | 5.81 nM
17 | H[Aib]EGTFTSDYSI[αMeF]LDKK([Dab-AEEA-Dab-AEEA-C20 diacid])AQ[αMeK]AFIQYLLA[Aib]GPSSGAPKPS-NH2 [Example 18] | 0.275 | 0.61 nM
18 | H[Aib]EGTFTSDYSI[αMeF]LDKK([Dab-AEEA-Dab-AEEA-C20 diacid])AQ[αMeK]AFIQYLLA[Aib]GPSSGAPPPS-NH2 [Example 19] | 0.436 | 0.386 nM
